The source of these data is patent publication US7935343B2.

Assay [1] deals with T1, murine IL-13 (murine).
T1 sequence: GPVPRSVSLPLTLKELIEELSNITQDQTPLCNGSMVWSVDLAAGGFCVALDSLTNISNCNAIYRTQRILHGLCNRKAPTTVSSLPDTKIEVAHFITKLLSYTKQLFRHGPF

The target of assay [2] is T1, murine IL-13 (murine). The source holds these as a separate data set.
Assay [3] deals with human IL-13 (human).
human IL-13 (human), sequence (chain, as listed by the source): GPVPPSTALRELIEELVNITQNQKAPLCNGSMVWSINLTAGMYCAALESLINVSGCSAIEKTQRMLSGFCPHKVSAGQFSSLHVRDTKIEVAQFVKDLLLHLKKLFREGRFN

B1: BAK209B11 scFv (scFv, V domains shown)
VH: VQLQESGGGGLVQPGGSLRLSCAASGFTFSSYGMSWVRQAPGKGLEWVSSISASGDSTFYADSVKGRFTISRDNNKNMVFLQVNSLRADDTAVYFCAKDWSQWLVGDAFDVWGRGTTVTVSS
VL: DIQLTQSPSTLSASVGDRVTITCRASQSVSLWVAWYQQRPGKAPKLLIYDGSTLQSGVPARFSGSGSGTEFTLTISSLQPDDFATYYCQQYKTFSTFGQGTKVEIKR
For B1, the IC50, TF-1 cell proliferation in assay [1] amounted to 185 nM.

B2: BAK209B11 human IgG4 (antibody, V domains shown)
VH: VQLQESGGGGLVQPGGSLRLSCAASGFTFSSYGMSWVRQAPGKGLEWVSSISASGDSTFYADSVKGRFTISRDNNKNMVFLQVNSLRADDTAVYFCAKDWSQWLVGDAFDVWGRGTTVTVSS
VL: DIQLTQSPSTLSASVGDRVTITCRASQSVSLWVAWYQQRPGKAPKLLIYDGSTLQSGVPARFSGSGSGTEFTLTISSLQPDDFATYYCQQYKTFSTFGQGTKVEIKR
B2: in assay [2], the IC50, B9 cell proliferation stood at 0.776 nM.

B3: BAK278D6 scFv (scFv, V domains shown)
VH: EVQLVQSGAEVKKPGASVKVSCKASGYTFRNYGLSWVRQAPGQGLEWMGWISANNGDTNYGQEFQGRITMTTETSTNTAHMELRSLRSDDTAVYYCVRDSSSNWARWFFDLWGKGTMVTVSS
VL: SYVLTQPPSVSVAPGQTARIPCGGNNIGSKLVHWYQQKPGQAPVLVVYDDGDRPSGIPERFSGSNSGNTATLTISRIDAGDEADYYCQVWDTGSDPVVFGGGTKLTVL
B3 registered an IC50, TF-1 proliferation (Mean TF1) in assay [3] of 44 nM.
